The target of one assay is T1, CXCR2 (UniProt P25025 1-360, limits assumed).
T1 construct: whole, on cells; also called L1.2CXCR2
T1 sequence (looked up): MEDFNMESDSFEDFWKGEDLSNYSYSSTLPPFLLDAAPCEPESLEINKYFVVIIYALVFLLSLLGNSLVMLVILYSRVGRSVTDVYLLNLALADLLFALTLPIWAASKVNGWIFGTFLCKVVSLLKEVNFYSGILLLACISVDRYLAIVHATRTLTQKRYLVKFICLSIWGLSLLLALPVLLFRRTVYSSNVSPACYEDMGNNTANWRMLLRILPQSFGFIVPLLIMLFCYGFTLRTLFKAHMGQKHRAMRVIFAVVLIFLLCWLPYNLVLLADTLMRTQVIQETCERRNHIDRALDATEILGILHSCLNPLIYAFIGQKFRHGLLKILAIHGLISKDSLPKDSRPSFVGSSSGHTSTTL
Description: flow cytometry on transfected L1.2 cells.

The target of a further assay is T2, CX3CR1 (V28) (UniProt P49238 1-355, limits assumed).
T2 construct: whole, on cells; also called L1.2 V28
T2 sequence (looked up): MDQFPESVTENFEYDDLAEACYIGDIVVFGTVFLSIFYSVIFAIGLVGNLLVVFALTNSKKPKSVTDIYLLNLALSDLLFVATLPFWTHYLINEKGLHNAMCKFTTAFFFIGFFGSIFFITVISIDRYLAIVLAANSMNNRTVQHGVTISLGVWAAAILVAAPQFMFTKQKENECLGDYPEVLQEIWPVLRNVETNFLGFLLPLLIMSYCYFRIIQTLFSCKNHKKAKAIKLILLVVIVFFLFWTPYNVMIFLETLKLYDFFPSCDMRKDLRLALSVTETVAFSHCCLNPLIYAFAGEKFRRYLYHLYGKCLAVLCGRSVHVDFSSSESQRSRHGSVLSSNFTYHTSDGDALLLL
As to the kind of experiment: flow cytometry on transfected L1.2 cells. A general note: In flow cytometry, cells or beads pass a laser one at a time.

In assay [1] the target is T3, C5aR N-terminal peptide (residues 9-29), PEPI (human).
T3 construct: Synthetic peptide (Biosource), residues 9-29 of C5aR; also called C5aR N-terminal peptide 9-29
T3 peptide: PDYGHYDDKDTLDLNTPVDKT
Description: ELISA, PEPI coated at 1 µg/ml. The method, then:
ELISAs were performed as described in Current Protocols in Immunology (Unit 2.1) (Edited by J. F. Coligan, A. M. Kruisbeek, D. B. Margulies, E. M. Shevach and W. Strober), John Wiley and Sons, New York. Briefly, 96-well flat bottom ELISA plates (Maxisorp; Nunc) were coated with 1 μg/ml protein (PEPI or OPG) in PBS at 37° C. for 1 hr, then blocked with BSA at 4° C. overnight. The plates were then washed, incubated with antibodies, washed and incubated with peroxidase-conjugated sheep anti-mouse IgG antibody. The substrate used was TMB substrate reagent (PharMingen).
ELISA assays were performed as described above to measure the reactivity of MAbs 6C12, 12D4, 7F3, with PEPI and OPG. OPG is a member of the TNF-receptor superfamily which binds specifically to its ligand TNFSF11/OPGL. More specifically, OPG is an osteoblast-secreted decoy receptor that functions as a negative regulator of bone resorption.
MAbs 6C12, 12D4 and 7F3 were used in the ELISA as purified proteins at a concentration of 1 μg/mL. MAb 9C1 (which is specific for OPG) and MAb 11B9 (which recognises PEPI) were used as positive controls. These control MAbs were used in the form of undiluted tissue culture supernatant.
For orientation: ELISA stands for enzyme-linked immunosorbent assay.

For assay [2], the target named is T4, human C5aR (human, UniProt P21730 1-350).
T4 chain: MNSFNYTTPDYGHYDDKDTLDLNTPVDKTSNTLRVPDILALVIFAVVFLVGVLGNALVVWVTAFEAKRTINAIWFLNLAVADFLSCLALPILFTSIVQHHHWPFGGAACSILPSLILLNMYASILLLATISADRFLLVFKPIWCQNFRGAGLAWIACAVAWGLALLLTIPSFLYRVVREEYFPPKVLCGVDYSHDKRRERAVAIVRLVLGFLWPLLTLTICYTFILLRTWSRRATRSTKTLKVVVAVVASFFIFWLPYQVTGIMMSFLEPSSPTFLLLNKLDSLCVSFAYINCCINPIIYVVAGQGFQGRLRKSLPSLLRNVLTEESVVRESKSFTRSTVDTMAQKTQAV
As to the kind of experiment: cell-based or functional assay.

Assay [3] deals with T4, human C5aR. Description: flow cytometry on L1.2 C5aR transfectants.
In assay [4] the target is T4, human C5aR. As to the kind of experiment: flow cytometry on L1.2 cells with human C5aR, MAb 50 ug/ml, with PEPI 1-100 µM. The method, then:
Anti-C5aR MAbs were added at 50 ug/ml, to a C5aR N-terminal synthetically produced peptide (residues 9-29) known as “PEPI” (Biosource; Eldridge) at concentrations ranging from 1 to 100 μM. Mouse L1.2 cells transfected with human C5a receptor and resuspended in 1% bovine serine albumin (BSA; GibcoBRL) (1×10^7/ml) were then added to give a total volume of 100 μl. The cells were incubated for 30 min at 4° C. and washed once with 0.1% BSA. Fluorescein (FITC) conjugated, sheep anti-mouse IgG, F(ab′)2 (Jackson Immunoresearch Laboratories Inc.) was used as a secondary Ab (1:200) and incubated for 15 min at 4° C., followed by an additional washing step with 0.1% BSA The cells were resuspended in 0.1% BSA and analysed by flow cytometry.

Numbering of substitutions follows the chain as printed.

The values below come from patent US20050244406A1 (G2 THERAPIES, published 2005).

B1: MAb 7F3 (antibody, V domains shown)
VH: QVQLQQSGPELVKPGASVKISCKASGYAFSNSWMNWVKQRPGKGLEWIGRIYPGDGDTKYNGKFKGKATLTADKSSSTAYMQLSSLTSEDSAVYFCARFLLISTVTAVDYWGQGTTLTVSS
VL: DVVMTQSPLSLPVSLGNQASISCRSSQSLVHSNGNTYLHWYLQKPGQSPKLLIYKVSNRFSGVPDRFSGSGSGTDFSLKISRVEAEDLGVYFCSQSTLVPLTFGAGTKLELK
notes: Murine monoclonal antibody from hybridoma ECACC 00110609; also called monoclonal antibody 7F3
Take B1: the binding result with CXCR2 is “no binding”; with CX3CR1 (V28) it was “no binding”; in assay [1] it was “no binding (tested: 1 µg/mL)”. Besides, the “neutrophil migration towards C5a” value in the assay with human C5aR [2] worked out at 140 fold reduction.

B2: MAb 12D4 (antibody, IgG3, V domains shown)
VH: QVQLKESGPGLVAPSQSLSITCTVSGFSLTSYGVDWVRQSPGKGLEWLGVIWGVGSTNYNSALKSRLSISKDNSKSQVFLKMNSLQTDDAAMYYCASHYGYDGLGFAYWGQGTLVTVSV
VL: B1 VL with S7T, N17D, N33S, D75H, S77T, V90I, L101P, A105G, L111I
notes: Murine monoclonal antibody from hybridoma ECACC 02090227; also called 12D4-P9
B2: the binding result with CXCR2 is “no binding”; with CX3CR1 (V28), “no binding”; in assay [1], “no binding (tested: 1 µg/mL)”; with human C5aR [3], “binds”.

B3: MAb 6C12 (antibody, IgG3, V domains shown)
VH: QVQLQQSGPEVVKPGASVKISCKASGYAFSRSWMNWVKQRPGKGLEWIGRIDAGDGDTKYNGKFKGKATLTADKSSSTAYMQLSSLTSEDSAVYFCASLLITTVVGAMDYWGQGTSVTVSS
VL: B1 VL with S7I, N17D, A19T, V30I, S77T, L88M, L98H, L101P, A105G, L111I
notes: Murine monoclonal antibody from hybridoma ECACC 02090226; also called 6C12 M12
Turning to B3, the binding result with human C5aR [4] is “binds”; with CXCR2, “no binding”; with CX3CR1 (V28), “no binding”; in assay [1], “no binding (tested: 1 µg/mL)”.
